Experimental data taken from article PMC6798120.

What was measured:
Assay in all cases: flow cytometry on cells
[1] = biological target: MHV-A59 S protein I22A (mouse hepatitis virus A59)
[2] = biological target: MHV-A59 S protein R20A (mouse hepatitis virus A59)
[3] = biological target: MHV-A59 S protein Y15A/L160A (mouse hepatitis virus A59)

soluble receptor mCEACAM1a[1,4] was tested. Which reduction of receptor binding against WT [1] did it give?
The reduction of receptor binding against WT was 83%.

And the reduction of receptor binding against WT [2]?
The reduction of receptor binding against WT was 61%.

And the reduction of receptor binding against WT [3]?
The reduction of receptor binding against WT was greater than 65%.
